Laboratory results as given in article PMC11605450, “Azotobacter vinelandii scaffold protein NifU transfers iron to NifQ as part of the iron-molybdenum cofactor biosynthesis pathway for nitrogenase” (The Journal of Biological Chemistry, 2024).
One block for each molecule: values may come before it.

Key:
[1] = target: apo-NifQH (A. vinelandii NifQ, C-terminal 6xHis, without [Fe-S] cluster) (A. vinelandii) (UniProt P11068); test: pull-down; apo-NifQH, AS-NifUS and SNifS (10 nmol of each) incubated together 5 min, anaerobic, buffer W (100 mM Tris-HCl pH 8.0, 150 mM NaCl, 10% glycerol); Ni-NTA agarose column, washes with 5 and 20 mM imidazole, elution with 150 mM imidazole; immunoblots
[2] = target: R-NifUS (A. vinelandii NifU, C-terminal Strep-tag, with in vitro reconstituted [Fe-S] clusters) (A. vinelandii) (UniProt P05340)
Chain of R-NifUS (A. vinelandii NifU, C-terminal Strep-tag, with in vitro reconstituted [Fe-S] clusters) (A. vinelandii) (P05340 whole entry): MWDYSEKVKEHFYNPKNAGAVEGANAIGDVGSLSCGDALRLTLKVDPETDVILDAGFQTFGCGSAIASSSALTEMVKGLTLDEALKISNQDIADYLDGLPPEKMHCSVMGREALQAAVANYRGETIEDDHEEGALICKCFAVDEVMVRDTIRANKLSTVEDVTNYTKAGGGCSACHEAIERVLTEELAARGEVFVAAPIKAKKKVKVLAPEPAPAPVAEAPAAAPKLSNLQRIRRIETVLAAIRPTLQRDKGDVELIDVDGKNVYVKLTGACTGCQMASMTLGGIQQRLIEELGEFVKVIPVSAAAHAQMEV

[3] = target: T1, apo-NifQH (A. vinelandii NifQ, C-terminal 6xHis, without [Fe-S] cluster) (A. vinelandii, UniProt P11068 1-195); test: pull-down; 10 nmol of Strep-tagged bait (AS-NifUS or R-IscUS) immobilised on a Streptactin-XT column in anaerobic buffer A (50 mM Tris-HCl pH 8.0, 100 mM NaCl, 10% glycerol), 10 nmol NifQH loaded onto the charged column, washed, eluted with 50 mM biotin; details: both partners purified
T1 construct: Purified aerobically to destroy the [Fe-S] clusters; source: E. coli BL21 (DE3), purified (Ni-NTA, aerobic conditions); not shown: His6, C-terminal, kept
T1 sequence (looked up): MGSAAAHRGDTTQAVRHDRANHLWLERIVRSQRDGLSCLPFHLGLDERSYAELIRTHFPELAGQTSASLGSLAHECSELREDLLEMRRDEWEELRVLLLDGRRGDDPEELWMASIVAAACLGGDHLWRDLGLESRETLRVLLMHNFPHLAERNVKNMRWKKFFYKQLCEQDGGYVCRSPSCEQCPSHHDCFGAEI

- percent of the total protein co-eluted [1]: 10%
Molecule: AS-NifUS (as-isolated A. vinelandii NifU, C-terminal Strep-tag) (from UniProt P05340 1-312) (natural protein)

- iron content per monomer of NifQH in the flowthrough of a Strep-tactin column after 5 min incubation of apo-NifQH with R-NifUS (Fe per NifQH monomer (molar ratio)) [2]: 1
Molecule: apo-NifQH (A. vinelandii NifQ, C-terminal 6xHis, without [Fe-S] cluster) (from UniProt P11068 1-195) (natural protein)

- binding result [3]: binds
B1: R-IscUS (A. vinelandii IscU, Strep-tag, with in vitro reconstituted [Fe-S] clusters) (natural protein, UniProt O31270 1-128, looked up)
chain: MAYSDKVIDHYENPRNVGKLDAQDPDVGTGMVGAPACGDVMRLQIKVNEQGIIEDAKFKTYGCGSAIASSSLATEWMKGRTLEEAETIKNTQIAEELALPPVKIHCSVLAEDAIKAAVRDYKHKKGLV
notes: also called R-SIscU; source: E. coli BL21 (DE3), purified (Strep-Tactin XT, anaerobic), [Fe-S] clusters reconstituted in vitro; not shown: Strep-tag, C-terminal, kept
